Measured values published in publication doi:10.1101/2022.11.17.516996v1 (bioRxiv, 2022).

Key:
[1] = test system: caveolin-1 phosphorylation on tyrosine 14; assay: Phospho-caveolin-1; type: cell-based, human; conditions: Src kinase inhibitor pretreatment before Aβ42; hCMEC/D3 cells; western blotting
[2] = test system: polarized hCMEC/D3 cell monolayers; assay: Energy dependent uptake of F-Aβ, flow cytometry with or without ATP depletion; type: in vitro ADME, human; conditions: 1 μM, 30 min; flow cytometry histograms
lysosomal compartment = conditions: from 25 nM in extracellular fluid; ref [58]; cited from earlier work

Compound | intra-endothelial accumulation in ATP depleted cells compared to control cells [2] | other results
Cc1ccc(-c2nn(C(C)(C)C)c3ncnc(N)c23)cc1 [PP1] |  | effect of pretreatment on Aβ42 induced caveolin-1 phosphorylation [1]: block the phosphorylation
F-Aβ40: fluorescently labeled soluble Aβ40 | significantly reduced | 
F-Aβ42: fluorescently labeled soluble Aβ42 | significantly reduced | 
amyloid beta peptide 42 [Aβ42] |  | concentration in the lysosomal compartment (lysosomal compartment): 2500 nM
